Tests used:
[1] = system: soybean cyst nematode (SCN, Heterodera glycines); test: Soybean cyst nematode reproduction on soybean after seed treatment, controlled environment (cysts per gram of root tissue or per plant); format: in vivo; conditions: for % Comparison to Control (figure in parentheses): change vs base control; for Average cysts per g of root tissue: soybean 2830E3
[2] = system: Diamondback moth (Plutella xylostella); test: Diet-surface overlay (DSO) bioassay on Diamondback moth; format: in vivo; conditions: 7 days
Experimental: (§1) Diet-surface overlay bioassays are conducted with artificial diet mixes without antibiotics in 1.5 cm^2 cell bioassay trays(s). Artificial diets are commercially available from Southland Products Inc. Diets were prepared by dispersing 0.5 mL of molten diet to each 1.5 cm^2 cell. After solidification, 0.1 mL enzyme treatments were dispersed on top of diet in each cell and the tray was gently rocked in an orbital shaker to spread the liquid uniformly over the diet surface. Trays were placed under clean airflow until the surface of each cell was uniformly dried. One or two 16-cell sections were used per treatment (the number in larvae treated was 16 or 32).
(§2) One healthy first instar larva was placed into each treatment cell, each 16-cell section was covered with a re-sealable lid and incubated at 27° C. and light-dark period of 16:8 hrs. After 7 days, and according to the species, the number of individuals in the following developmental categories was recorded.
(§3) Diamondback moth (Plutella xylostella): Dead Larva (lack of movement), Larva Stage I (≤50% relative size), Larva Stage II (100% relative size, full size), Early Pupa (light green color), Late Pupa (light-dark brown color), and Adult.
(§4) Negative/untreated controls were treated with filtered water and positive controls were treated with lethal doses of Bacillus thuringiensis subsp. Kurstaki (Btk) spores at 1000 ppm.

[3] = system: Btk resistant Diamondback moth; test: Diet-surface overlay (DSO) bioassay on Btk resistant Diamondback moth; format: in vivo, Plutella xylostella; conditions: 7 days
Experimental: as §1, §2, §3, §4
However, both neutral proteases reduced the number of individuals reaching adult stage.
The effect of lipase (10× enzyme rate) and free lipases were tested on a Diamondback Moth Btk resistant strain. Free Lipases from Burkholderia cepacia (Bc) and Pseudomonas fluorescens (Pf) were tested along with Lipase (SEQ ID NO: 76) and the results are shown below in Table 45.

[4] = system: SCN juveniles (SCN HG type 1.2.5.7, race 2); test: In-vitro plate assay of SCN juvenile viability (difference in percent death); format: in vivo; conditions: Table 32, 40 μL per well of each treatment, water only 4%
Experimental: (§5) SCN eggs were obtained from SCN HG type 1.2.5.7, race 2. Eggs were rinsed 4 times with sterile water. Eggs were transferred to a 6-well plate and resuspended in 5 mL of 3 mM ZnSO4. The plate was sealed with parafilm, covered with aluminum foil to prevent light from entering the plate, and placed in a plate growth chamber at 25° C. and 80% relative humidity. After 6-7 days of incubation, an estimate of hatched SCN juveniles was obtained from the well to determine the overall number of juveniles per 10 μL. The concentration of the hatchery solution was adjusted until it consisted of 20-30 juveniles per 10 μL.
Potato dextrose agar media containing chloramphenicol and chlortetracycline was prepared and added to sterile twenty-four-well cell culture plates (1 mL per well). The plates were divided according to the pre-determined N-value for each treatment (N=12-24). Each treatment being tested was added to the agar surface within each well at a rate of 40 μL per well. Without allowing the treatments to dry, 10 μL of the prepared nematode mixture was added to the agar surface within each well.
To quantify the treatments' effects on nematode viability, the nematodes were examined under a dissecting microscope at 20× magnification. Initial (TO) values for the number of live juveniles, number of dead juveniles and total number of juveniles were recorded immediately after preparation of each well. The plates were then wrapped in parafilm around the open edge, encased in aluminum foil, and placed in secondary containment. The secondary containment was placed in a plant growth chamber at 25° C. and 80% relative humidity. At approximately 24 hours post addition of juveniles, the plates were evaluated, and the number of live juveniles, dead juveniles and total number of juveniles were recorded (T24).
The difference in percent death at T0 vs T24 was calculated by subtracting the percent dead at TO [(#dead juveniles/total #juveniles)×100] from the percent dead at T24 [(#dead juveniles/#total juveniles originally present)×100]. […] If the ANOVA indicated a significant difference existed among treatments, Tukey's HSD post hoc test was used to perform a pairwise contrast between each set of treatments. Different letters denote statistically significant results at P<0.05.
as §5, with “from” for “from SCN”, “rinsed four” for “rinsed 4”, “and 80-90%” for “and 80%”, “from each” for “from the”
Potato dextrose agar media containing chloramphenicol and chlortetracycline was prepared and added to sterile twenty-four-well cell culture plates (1 mL per well). The plates were divided according to the pre-determined N-value for each treatment (N=24). […]
To quantify the treatments' effects on nematode viability, the nematodes were examined under a dissecting microscope at 20× magnification. Initial (TO) values for the number of live juveniles, number of dead juveniles and total number of juveniles were recorded. […]

[5] = Table 44, number of individuals, n = 16
[6] = Table 45, number of individuals, n = 32

B1: Collagenase B (SEQ ID NO: 208): Bacillus pumulis Collagenase B (ColB) (protein, listed as Bacillus pumulis, listed as Bacillus pumilus)
chain: IVNGKRVITKKPELLAPAGNLEKLKIAVHYGADAVFIGGQEYGLRSNADNFTIEEIAEGVEFAKKYGAKIYVTTNIFAHNENMDGLEDYLKALGDANVAGIIVADPLIIETCRRVAPNVEVHLSTQQSLSNWKAVQFWKEEGLDRVVLARETSALEIREMKEKVDIEIESFIHGAMCIAYSGRCVLSNHMTARDSNRGGCCQSCRWDYDLYQTDGANAVALYGEEDAPFAMSPKDLKLIESIPKMIEMGIDSLKIEGRMKSIHYVATVVSVYRKVIDAYCADPENFVIQKEWLEELDKCANRDTATAFFEGTPGYEEQMFGEHAKKTTYDFVGLVLNYDEDTQMVTLQQRNFFKKGDEVEFFGPEIENFTHTIETIWDEDGNELDAARHPLQIVKFKLDKKIYPSNMMRKGK
modifications: Collagenase B (ColB)
% Comparison to Control (figure in parentheses) ([1]; Table 22): −85% | Average cysts per g of root tissue ([1]; Table 22, free enzyme seed treatment): 70.9 cysts per g of root tissue

B2: Lipase (SEQ ID NO: 76): Recombinant lipase from Bacillus thuringiensis; Bacillus thuringiensis Lipase (Lip1) (protein, listed as Bacillus thuringiensis)
chain: MRLMRRCVALLIVFFIMAPMISTNVRAGVVKELKTGFPDQEVFTPGEWFLGQKPANYDENKPPILFVQGRNGNADSWYGKTVYHDINDMYDYALKAGYQTVFIQLYDAAGKGSASQWDNGKLLAQKLEEIYNHFGKKVNIVAHSKGGIDTQAALVGYGANRFVGNVITLATPHHGSNLADLSYSWWAGWLASILGQKDDGTYSLQMGEMAKFRSTIDNNPAAKLNRYYTVTGTSWGPVFSALSMGGLYLSSYGSNDGLVNECSAKLPYGTHLFTDSRFDHDNIRKGSAVFARIEPYLRTANVPVPALVASSTSSNENIEQLNTTSNQSILGGELPQNQWIEQTVAVDKKAEGIVSILTASSDVEVQMISPKGKVYTNKDSVITTGEGESFFGGATIRTFKFDKMDVGEWKVKMMTKQSKDAYLVVSDYKTGAPFVLQMPTKVKANKSEYKLKKSPVAPEMKGDLSITVRVVNKEGKLVSEFNELQNVNNNTFTGALKNIKQPGVYNVTMDIKGMNKEGKSYSRTIVKSVYVEK
modifications: Lipase (Lip1 H192)
Effect on survival and development of Diamondback moth (in words) ([2]; DSO bioassay): delayed larva-pupa development | Dead Larva ([2]; Table 44, lipases, number of individuals, n = 16): 0 | Adult [2, 5]: 0 | Early Pupa [2, 5]: 3 | Larva Stage I [2, 5]: 0 | Larva Stage II [2, 5]: 0 | Late Pupa [2, 5]: 13 | Effect on survival and development of Btk resistant Diamondback moth (in words) ([3]; DSO bioassay): clear delay of larva-pupa development | Dead Larva ([3]; Table 45, lipases, number of individuals, n = 32, Btk resistant strain per text): 1 | Adult [3, 6]: 0 | Early Pupa [3, 6]: 10 | Larva Stage I [3, 6]: 9 | Larva Stage II [3, 6]: 12 | Late Pupa [3, 6]: 0

B3: Pseudomonas sp. esterase (SEQ ID NO: 248): Pseudomonas sp. Esterase (protein, listed as Pseudomonas sp.)
chain: MTEPLILQPVKPADACVIWLHGLGADRYDFLPVAEALQEILLSTRFVLPQAPTRPVTINGGYAMPSWYDIKAMSPARAIDRDELEASADRIIELIEEQRSSGIDASRIFLAGFSQGGAVVYHTAFLKWQGPLGGVLALSTYAPTFSDELELSASQQRIPVLSLHGQFDNVVQNSMGRTAYEYLKAHGVTVTWQEYPMEHEVLPEEIRDIGTWLSERLR
% Comparison to Control (figure in parentheses) ([1]; Table 16): −10% | Average cysts per g of root tissue ([1]; Table 16, free enzyme or 4x concentrate seed treatment): 220.2 cysts per g of root tissue | Difference in Percent Death of Nematodes for 0 to 24 Hours [4]: 22% | Difference in Percent Death of Nematodes for 0 to 24 Hours ([4]; listed as Pseudomonas sp. esterase free enzyme (SEQ ID NO: 248)): 22%

B4: Bacillus thuringiensis Lipase 2 (SEQ ID NO: 251): Bacillus thuringiensis Lipase 2 (protein, listed as Bacillus thuringiensis)
chain: EVVKELGKGFPDTEVFTPGEWFLGQKPANYDENKPPILFVQGRNGNADSWYGKTVYHDINDMYDYALKAGYQTVFIQLYDAAGKGSASQWDNGKLLAQKLEEIYNYFGKKVNIVAHSKGGIDTQAALVEYGANRFVGNVITLATPHHGSNLADLSYSWWAGWLASILGQKDDGTYSLQIGEMAKFRSIIDNNPAAKLNRYYTATGTSWGPTFSALSMGGLYLSSYGSNDGLVNEWSAKLSYGTHLFTDSRFDHDNIRKGSAVFARIEPYLRTTNVGLPALVASSTSSNEDLEQLNTTSNQNILGGELPQNQWIEQSISVDKKAEGIVSVLTASSDVEVQMVSPKGKIYANKDSAITTGEGESFFNRATIRTFKFDKLEVGEWKIKMMAKQSKDAYLVVSDYKDDAPFVLRMPTKVKINKPEYKLKKSPVAPEMKGDLSITVRVVNKEGKLVSEFNELQNVNTNTFTGALKDIKQPGVYNVTMDIKGMNKEGKPYNRTIVKSVYVEK
% Comparison to Control (figure in parentheses) ([1]; Table 20): −43% | Average cysts per g of root tissue ([1]; Table 20, free enzyme seed treatment): 264.3 cysts per g of root tissue

— US20260231954A1, “PESTICIDAL ENZYMES FOR USE ON NEMATODES, INSECTS, AND MOLLUSKS” (priority 2023, published 2026)
